# Measurements as given in PMC4104028 (2014).
# B1: FLAG-Atg16L1 full-length (FL) [mouse] / endogenous FIP200 (HEK293A) [human (endogenous in HEK293A)] (parent complex)
# chain 1: MSSGLRAADFPRWKRHIAEELRRRDRLQRQAFEEIILQYTKLLEKSDLHSVLTQKLQAEKHDMPNRHEISPGHDGAWNDSQLQEMAQLRIKHQEELTELHKKRGELAQLVIDLNNQMQQKDKEIQMNEAKISEYLQTISDLETNCLDLRTKLQDLEVANQTLKDEYDALQITFTALEEKLRKTTEENQELVTRWMAEKAQEANRLNAENEKDSRRRQARLQKELAEAAKEPLPVEQDDDIEVIVDETSDHTEETSPVRAVSRAATKRLSQPAGGLLDSITNIFGLSESPLLGHHSSDAARRRSVSSIPVPQDIMDTHPASGKDVRVPTTASYVFDAHDGEVNAVQFSPGSRLLATGGMDRRVKLWEAFGDKCEFKGSLSGSNAGITSIEFDSAGAYLLAASNDFASRIWTVDDYRLRHTLTGHSGKVLSAKFLLDNARIVSGSHDRTLKLWDLRSKVCIKTVFAGSSCNDIVCTEQCVMSGHFDKKIRFWDIRSESVVREMELLGKITALDLNPERTELLSCSRDDLLKVIDLRTNAVKQTFSAPGFKCGSDWTRVVFSPDGSYVAAGSAEGSLYVWSVLTGKVEKVLSKQHSSSINAVAWAPSGLHVVSVDKGSRAVLWAQP
# chain 2: MKLYVFLVNTGTTLTFDTELTVQTVADLKHAIQSKYKIAIQHQVLVVNGGECMAADRRVCTYSAGTDTNPIFLFNKEMILCDRPPAIPKTTFSTENDMEIKVEESLMMPAVFHTVASRTQLALEMYEVAKKLCSFCEGLVHDEHLQHQGWAAIMANLEDCSNSYQKLLFKFESIYSNYLQSIEDIKLKLTHLGTAVSVMAKIPLLECLTRHSYRECLGRLDSLPEHEDSEKAEMKRSTELVLSPDMPRTTNESLLTSFPKSVEHVSPDTADAESGKEIRESCQSTVHQQDETTIDTKDGDLPFFNVSLLDWINVQDRPNDVESLVRKCFDSMSRLDPRIIRPFIAECRQTIAKLDNQNMKAIKGLEDRLYALDQMIASCGRLVNEQKELAQGFLANQKRAENLKDASVLPDLCLSHANQLMIMLQNHRKLLDIKQKCTTAKQELANNLHVRLKWCCFVMLHADQDGEKLQALLRLVIELLERVKIVEALSTVPQMYCLAVVEVVRRKMFIKHYREWAGALVKDGKRLYEAEKSKRESFGKLFRKSFLRNRLFRGLDSWPPSFCTQKPRKFDCELPDISLKDLQFLQSFCPSEVQPFLRVPLLCDFEPLHQHVLALHNLVKAAQSLDEMSQTITDLLSEQKASVSQTSPQSASSPRMESTAGITTTTSPRTPPPLTVQDPLCPAVCPLEELSPDSIDAHTFDFETIPHPNIEQTIHQVSLDLDSLAESPESDFMSAVNEFVIEENLSSPNPISDPQSPEMMVESLYSSVINAIDSRRMQDTNVCGKEDFGDHTSLNVQLERCRVVAQDSHFSIQTIKEDLCHFRTFVQKEQCDFSNSLKCTAVEIRNIIEKVKCSLEITLKEKHQKELLSLKNEYEGKLDGLIKETEENENKIKKLKGELVCLEEVLQNKDNEFALVKHEKEAVICLQNEKDQKLLEMENIMHSQNCEIKELKQSREIVLEDLKKLHVENDEKLQLLRAELQSLEQSHLKELEDTLQVRHIQEFEKVMTDHRVSLEELKKENQQIINQIQESHAEIIQEKEKQLQELKLKVSDLSDTRCKLEVELALKEAETDEIKILLEESRAQQKETLKSLLEQETENLRTEISKLNQKIQDNNENYQVGLAELRTLMTIEKDQCISELISRHEEESNILKAELNKVTSLHNQAFEIEKNLKEQIIELQSKLDSELSALERQKDEKITQQEEKYEAIIQNLEKDRQKLVSSQEQDREQLIQKLNCEKDEAIQTALKEFKLEREVVEKELLEKVKHLENQIAKSPAIDSTRGDSSSLVAELQEKLQEEKAKFLEQLEEQEKRKNEEMQNVRTSLIAEQQTNFNTVLTREKMRKENIINDLSDKLKSTMQQQERDKDLIESLSEDRARLLEEKKKLEEEVSKLRSSSFVPSPYVATAPELYGACAPELPGESDRSAVETADEGRVDSAMETSMMSVQENIHMLSEEKQRIMLLERTLQLKEEENKRLNQRLMSQSMSSVSSRHSEKIAIRDFQVGDLVLIILDERHDNYVLFTVSPTLYFLHSESLPALDLKPGEGASGASRRPWVLGKVMEKEYCQAKKAQNRFKVPLGTKFYRVKAVSWNKKV
# B2: FLAG-Atg16L1 full-length (FL) [mouse] / GFP-WIPI2b [not stated] (parent complex)
# chain 1: B1 chain 1
# chain 2: MNLASQSGEAGAGQLLFANFNQDNTSLAVGSKSGYKFFSLSSVDKLEQIYECTDTEDVCIVERLFSSSLVAIVSLKAPRKLKVCHFKKGTEICNYSYSNTILAVKLNRQRLIVCLEESLYIHNIRDMKVLHTIRETPPNPAGLCALSINNDNCYLAYPGSATIGEVQVFDTINLRAANMIPAHDSPLAALAFDASGTKLATASEKGTVIRVFSIPEGQKLFEFRRGVKRCVSICSLAFSMDGMFLSASSNTETVHIFKLETVKEKPPEEPTTWTGYFGKVLMASTSYLPSQVTEMFNQGRAFATVRLPFCGHKNICSLATIQKIPRLLVGAADGYLYMYNLDPQEGGECALMKQHRLDGSLETTNEILDSASHDCPLVTQTYGAAAGKGTYVPSSPTRLAYTDDLGAVGGACLEDEASALRLDEDSEHPPMILRTD
# B3: GFP-WIPI2b [not stated] / FLAG-Atg16L1 full-length (FL) [mouse] (parent complex)
# chain 1: B2 chain 2
# chain 2: B1 chain 1
# B4: GFP-WIPI2b [not stated] / FLAG-Atg16L1 full-length (FL) [mouse] (parent complex)
# chain 1: B2 chain 2
# chain 2: B1 chain 1
# Variants of: B1
# Assay: FLAG immunoprecipitation, immunoblot quantification; parent: 1; read off a plot
row,Variant,ratio to parent
1,chain 1 E208R,~1.3
2,chain 1 E230R,~2.9
3,chain 1 E241R,~0.25
4,chain 1 D238R,~0.42
5,chain 1 D239R,~0.3
6,chain 1 D237R,~0.45
7,chain 1 D212R,~1.2
8,chain 1 E235R,~0.7
9,chain 1 E226R,~2.1

# Variants of: B2
# Assay: GFP-Trap co-immunoprecipitation from mixed lysates, immunoblot quantification; parent: 1; read off a plot
row,Variant,ratio to parent
1,chain 1 E226R,~0.02
2,chain 1 E208R,~0.67
3,chain 1 E230R,~0.02
4,chain 1 D239R,~0.8
5,chain 1 D238R,~1.3
6,chain 1 D212R,~0.63
7,chain 1 E241R,~1.1
8,chain 1 E235R,~1.2
9,chain 1 D237R,~1.7

# Variants of: B3
# Assay: GFP-Trap co-immunoprecipitation from mixed lysates, immunoblot quantification; parent: 2.5; read off a plot
row,Variant,response
1,chain 2 E226R,~0.33
2,chain 2 E230R,~0.62
3,"chain 2 E226R, chain 2 E230R",~0.02

# Variants of: B4
# Assay: as above
row,Variant,response
1,chain 1 R125E,~1.6
2,chain 1 R108E,~0.04
3,"chain 1 R108E, chain 1 R125E",~0.03
